Blank lines part the entries; values can stand above or below the binder they belong to.
Columns and labels:
[1] = target: T1, human Robo 4 FN-like domain 1-Fc (human, UniProt P0DOX5 222-449 = IgG part); assay: SPR, IgG captured via anti-human Fab, domain-Fc as analyte
T1 construct: also called fibronectin-like domain 1
Procedure: (§1) All surface plasmon resonance (SPR) experiments are performed on a Biacore T100 at 25° C. with HBS-EP as running buffer (0.01 M HEPES pH 7.4, 0.15 M NaCl, 3 mM EDTA, 0.005% Surfactant P20 (Biacore)).
(§2) For determination of the epitope of the four analyzed anti-Robo 4 antibodies, domain variants of human Robo 4 (FN-like domain 1, FN-like domain 2, Ig-like domain 1 and Ig-like domain 2) were used. Anti-Robo 4 antibodies were captured for 60 s at 50 nM on a sensorchip surface with immobilized anti-human Fab specific antibody (GE Healthcare). Domain variants of human Robo 4 were passed at a concentration range of 0.46-1000 nM with a flow of 30 μl/min through the flow cells over 90 s. The dissociation was monitored for 120 s. Bulk refractive index differences were corrected for by subtracting the response obtained on reference flow cell as described above.

[2] = target: T2, human Robo 4 Ig-like domain 1-Fc (human, UniProt P0DOX5 222-449 = IgG part); assay: as above
T2 construct: also called IgG-like domain 1
Procedure: as §1, §2

[3] = target: T3, human Robo 4 Ig-like domain 2-Fc (human, UniProt P0DOX5 222-449 = IgG part); assay: as above
T3 construct: also called IgG-like domain 2
Procedure: as §1, §2

[4] = target: T4, human Robo 4 FN-like domain 2-Fc (human, UniProt P0DOX5 222-449 = IgG part); assay: as above
T4 construct: also called fibronectin-like domain 2
Procedure: as §1, §2

[5] = target: T5, murine (mu) Robo 4 ECD-PreS-Avi-His (mouse); assay: SPR Biacore T100, IgG captured via anti-human Fab, antigen as analyte
T5 construct: also called recombinant murine Robo 4; murine Robo 4
T5 chain: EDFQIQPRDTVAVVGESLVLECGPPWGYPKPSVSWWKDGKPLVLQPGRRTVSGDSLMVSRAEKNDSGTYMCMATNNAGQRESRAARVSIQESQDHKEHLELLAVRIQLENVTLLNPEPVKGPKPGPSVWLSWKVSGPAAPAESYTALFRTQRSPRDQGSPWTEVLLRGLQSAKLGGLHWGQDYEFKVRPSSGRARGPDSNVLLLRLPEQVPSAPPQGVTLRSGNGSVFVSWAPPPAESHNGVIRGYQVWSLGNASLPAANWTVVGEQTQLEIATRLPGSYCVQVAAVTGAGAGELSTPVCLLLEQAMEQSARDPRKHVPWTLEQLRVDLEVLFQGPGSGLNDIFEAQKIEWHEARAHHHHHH
Procedure: as §1
Anti Robo 4 antibodies were captured for 60 s at 50 nM. Recombinant human, murine and cynomolgus Robo 4 were passed at a concentration range from 0.46-1000 nM with a flow of 30 μl/min through the flow cells over 90 s. The dissociation was monitored for 120 s. Bulk refractive index differences were corrected for by subtracting the response obtained on a reference flow cell. Here, the antigens were flown over a surface with immobilized anti-human Fab specific antibody on which HBS-EP has been injected rather than the antibodies.
(§3) Kinetic constants were derived using the Biacore T100 Evaluation Software (vAA, Biacore), to fit rate equations for 1:1 Langmuir binding by numerical integration.

[6] = target: T5, murine (mu) Robo 4 ECD-PreS-Avi-His; assay: SPR Biacore T100, biotinylated antigen on streptavidin chip, IgG as analyte (avidity)
Procedure: as §1
Determination of avidity was done by direct immobilization of biotinylated recombinant human, murine and cynomolgus Robo 4 on a Streptavidin sensor chip. Immobilization level ranged from 300 to 1000 RU. Anti-Robo 4 antibodies were passed through the flow cells for 220 s at 30 μl/min in a concentration range from 0.78-50 nM. Dissociation was monitored for 220 s. For the blank and the 25 nM injection dissociation was monitored for 600 s.
as §3

B2: 01E06 anti-Robo 4 IgG (antibody, V domains shown)
VH: EVQLVESGGGLSQPGNSLKLSCEASGFTFRNYDMSWVRQAPGKGLEWVAYISSGGGPIYYVDAVKGRFTISRDNAKNLLFLQMNNLRSEDTAVYYCARDLADIGVFDYWGQGTMVTVSS
VL: DFKMTQSPDILSPSLGESVTITCQSSQNIYSNLAWYQQKPGEHPKLLIYTASILADGIPSRFTGSGSGTQFSLKISSLQPDDVANYYCQQYVYYRTFGPGTKLEIK
notes: also called 01E06 IgG
binding result [1]: no binding (tested: 0.46-1000 nM)
binding result [2]: no binding (tested: 0.46-1000 nM)
Kd [3]: 4.9 nM
binding result [4]: no binding (tested: 0.46-1000 nM)
Kd [6]: 1.07 nM
koff [6]: 0.000805 s⁻¹
kon [6]: 750000 M⁻¹ s⁻¹

B4: 01F09 anti-Robo 4 IgG (antibody, V domains shown)
VH: QIQLQESGPGLVKPSQSLSLTCSVTGYSISSGSLWTWIRQFPGNNLEWMGYISYAGGIDYNPSLTSRISITRDTSRNQFFLQLESVTTQDTATYYCATPGGYPFHFDYWGQGTMVTVSS
VL: QPVLTQSPSASASLGASVKLTCTLNSQFSTYNIGWYQQHRDKPPKYVMFVKGDGGHSKADGIPDRFSGSSSGADRYLTISNIQAEDEAIYFCGADYNNAGQYGCVFGSGTHFTVLG
notes: also called 01F09 IgG
binding result [1]: no binding (tested: 0.46-1000 nM)
binding result [2]: no binding (tested: 0.46-1000 nM)
Kd [3]: 55.5 nM
binding result [4]: no binding (tested: 0.46-1000 nM)
Kd [6]: 1.09 nM
koff [6]: 0.00115 s⁻¹
kon [6]: 1.05e+06 M⁻¹ s⁻¹

Continued, in another order:

binding result [1]: no binding (tested: 0.46-1000 nM)
Kd [2]: 151 nM
Kd [3]: 66.7 nM
binding result [4]: no binding (tested: 0.46-1000 nM)
B1: 7G2 anti-Robo 4 IgG (antibody, V domains shown)
VH: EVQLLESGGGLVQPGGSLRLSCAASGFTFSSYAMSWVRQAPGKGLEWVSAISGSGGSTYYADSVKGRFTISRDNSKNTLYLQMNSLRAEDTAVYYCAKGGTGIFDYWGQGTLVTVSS
VL: EIVLTQSPGTLSLSPGERATLSCRASQSVSSSYLAWYQQKPGQAPRLLIYGASSRATGIPDRFSGSGSGTDFTLTISRLEPEDFAVYYCQQGQLPPRTFGQGTKVEIK
notes: also called 7G2 IgG
binding result [5]: no binding (tested: antigen 0.46-1000 nM)

binding result [1]: no binding (tested: 0.46-1000 nM)
binding result [2]: no binding (tested: 0.46-1000 nM)
binding result [3]: no binding (tested: 0.46-1000 nM)
Kd [4]: 30.6 nM
Kd [6]: 0.19 nM
koff [6]: 7.32e-05 s⁻¹
kon [6]: 373000 M⁻¹ s⁻¹
B3: 01F05 anti-Robo 4 IgG (antibody, V domains shown)
VH: QVQLKQSGAELVKPGASVKISCKTSVYTFTYGYMHWVEQKPGQGLEWIGRIDPDSGNSMYNQKFQGRATLTRDKSSSTVYMELRSLTSEDSAVYYCARSMRYSGYRDYALDLWGQGTQVTVSS
VL: QLVLTQSPSASASLGASVKLTCTLSSQHSSYGITWLQQHPDKAPKYVMYLKSDGSHTKGADIPDRFSGSSSGVHRYLSISNVQPEDEAIYFCVTYDSTHVFGSGTQLTVLG
notes: also called 01F05 IgG

From patent US20180282410A1 (Hoffmann-La Roche, published 2018)
